Legend:
[1] = biological target: T1, HY5 (UniProt O24646 1-168); assay: EMSA
T1 sequence: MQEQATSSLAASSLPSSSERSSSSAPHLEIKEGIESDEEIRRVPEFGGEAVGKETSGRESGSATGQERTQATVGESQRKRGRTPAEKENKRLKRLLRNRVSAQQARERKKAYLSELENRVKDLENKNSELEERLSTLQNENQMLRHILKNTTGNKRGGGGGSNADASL

[2] = biological target: T1, HY5; assay: competition

B1: PAP8 promoter box probe (oP8Box) (dsDNA)
DNA 1: GGATACCAAAAATGACGCTCTTAATTATTTCC
DNA 2: GGAAATAATTAAGAGCGTCATTTTTGGTATCC
binding result [1]: binds

B2: G-box cold competitor (GbH5) (dsDNA)
DNA 1: GTTCTAGTGTATCAGACACGTGTCGACAAACTGGTGG
DNA 2: CCACCAGTTTGTCGACACGTGTCTGATACACTAGAA
binding result [2]: binds
